Test results published in paper PMC9456320.

Experiments:
[1] = target: C-terminally mKGC-tagged ORF30 (ORF30-mKGC) (Kaposi's sarcoma-associated herpesvirus (KSHV; BAC16, strain JSC-1)); assay: split reporter (BiFC, NanoBiT); split mKusabira-Green (mKGN/mKGC) BiFC in 293T cells, co-transfected by the calcium phosphate method, all combinations of tag type and location; cells fixed two days after transfection, gated by FSC/SSC, ratio of mKG-positive cells by flow cytometry
[2] = target: C-terminally mKGC-tagged ORF30 (ORF30-mKGC); assay: BiFC assay, flow cytometry; settings: 293T cells, co-transfected with mCherry transfection control, three independent samples
p50-mKGC (pCONT-2) = p50-mKGC (pCONT-2) (UniProt P19838); assay: split reporter (BiFC, NanoBiT); split mKusabira-Green BiFC in 293T cells, lipofection of mKGN-ORF18 alanine-scanning mutants with ORF30-mKGC and mCherry as transfection control; mCherry-positive cells gated, % mKG-positive cells by flow cytometry; block mutants under 20% and single mutants under 60% counted as binding-negative
UniProt P19838, sequence (P19838 1-433): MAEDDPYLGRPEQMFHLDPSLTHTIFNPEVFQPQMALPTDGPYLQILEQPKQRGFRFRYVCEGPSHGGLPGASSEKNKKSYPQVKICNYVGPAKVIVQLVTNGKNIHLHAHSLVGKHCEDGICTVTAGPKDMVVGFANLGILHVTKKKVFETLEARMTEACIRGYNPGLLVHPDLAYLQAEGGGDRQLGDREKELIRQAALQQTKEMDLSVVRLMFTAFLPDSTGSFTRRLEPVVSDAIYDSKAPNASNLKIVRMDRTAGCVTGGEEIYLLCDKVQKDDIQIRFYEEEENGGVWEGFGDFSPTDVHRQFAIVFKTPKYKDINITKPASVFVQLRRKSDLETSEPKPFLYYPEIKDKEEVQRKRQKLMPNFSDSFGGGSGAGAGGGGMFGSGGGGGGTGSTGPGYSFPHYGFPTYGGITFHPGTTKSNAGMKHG

| Substance | response ([2]; parent: 99.9) | response ([2]; parent: 99.8) | also measured |
| --- | --- | --- | --- |
| N-terminally mKGN-tagged ORF18 (mKGN-ORF18) WT (natural protein) |  |  | mKG-positive cells (%) [1]: 70% |
| N-terminally mKGN-tagged ORF18 (mKGN-ORF18) WT C166A | 99.6% |  |  |
| N-terminally mKGN-tagged ORF18 (mKGN-ORF18) WT C166A; L167A; W170A; G171A |  | 14.2% |  |
| N-terminally mKGN-tagged ORF18 (mKGN-ORF18) WT E36A | 55.9% |  |  |
| N-terminally mKGN-tagged ORF18 (mKGN-ORF18) WT E36A; L37A; R38A |  | 9.76% |  |
| N-terminally mKGN-tagged ORF18 (mKGN-ORF18) WT E176A; V179A; R180A |  | 75.3% |  |
| N-terminally mKGN-tagged ORF18 (mKGN-ORF18) WT F187A; L191A |  | 32.7% |  |
| N-terminally mKGN-tagged ORF18 (mKGN-ORF18) WT G3A |  | 99.8% |  |
| N-terminally mKGN-tagged ORF18 (mKGN-ORF18) WT G15A | 99.6% |  |  |
| N-terminally mKGN-tagged ORF18 (mKGN-ORF18) WT G171A | 98.6% |  |  |
| N-terminally mKGN-tagged ORF18 (mKGN-ORF18) WT G195A; L197A |  | 87.5% |  |
| N-terminally mKGN-tagged ORF18 (mKGN-ORF18) WT H41A | 47.4% |  |  |
| N-terminally mKGN-tagged ORF18 (mKGN-ORF18) WT H41A; L44A |  | 16.2% |  |
| N-terminally mKGN-tagged ORF18 (mKGN-ORF18) WT L19A | 99.1% |  |  |
| N-terminally mKGN-tagged ORF18 (mKGN-ORF18) WT L24A | 93.4% |  |  |
| N-terminally mKGN-tagged ORF18 (mKGN-ORF18) WT L24A; L29A |  | 16.7% |  |

| Substance | response ([2]; parent: 99.9) | response ([2]; parent: 99.8) | also measured |
| --- | --- | --- | --- |
| N-terminally mKGN-tagged ORF18 (mKGN-ORF18) WT L29A | 58.8% |  |  |
| N-terminally mKGN-tagged ORF18 (mKGN-ORF18) WT L37A | 98.7% |  |  |
| N-terminally mKGN-tagged ORF18 (mKGN-ORF18) WT L44A | 94.7% |  |  |
| N-terminally mKGN-tagged ORF18 (mKGN-ORF18) WT L142A; D144A; G145A; N146A |  | 81.3% |  |
| N-terminally mKGN-tagged ORF18 (mKGN-ORF18) WT L151A; G152A; S153A |  | 72.6% |  |
| N-terminally mKGN-tagged ORF18 (mKGN-ORF18) WT L159A | 99.9% |  |  |
| N-terminally mKGN-tagged ORF18 (mKGN-ORF18) WT L167A | 96.6% |  |  |
| N-terminally mKGN-tagged ORF18 (mKGN-ORF18) WT N53A; Y55A; L56A |  | 39.9% |  |
| N-terminally mKGN-tagged ORF18 (mKGN-ORF18) WT P14A | 99.9% |  |  |
| N-terminally mKGN-tagged ORF18 (mKGN-ORF18) WT P14A; G15A; L19A |  | 14.1% |  |
| N-terminally mKGN-tagged ORF18 (mKGN-ORF18) WT P156A | 99.8% |  |  |
| N-terminally mKGN-tagged ORF18 (mKGN-ORF18) WT P156A; R158A; L159A |  |  | response ([2]; ASC10mut protein expression was not confirmed by Western blotting, parent: 99.8): 14.4% |
| N-terminally mKGN-tagged ORF18 (mKGN-ORF18) WT R158A | 87.3% |  |  |
| N-terminally mKGN-tagged ORF18 (mKGN-ORF18) WT W170A | 25.6% |  |  |
| p65-mKGN (pCONT-1) (from UniProt Q04206 1-551) (natural protein) |  |  | mKG-positive cells (%) (p50-mKGC (pCONT-2)): > 90% |
